Data reported in patent US20260183437A1, “VHH ANTIBODY CONJUGATES WITH HETEROARYL CHELATORS” (ABDERA THERAPEUTICS INC., priority 2022, published 2026).
Positions count from the first letter of the chain named.

Tests used:
[1] = biological target: T1, FcγRIIIa (F176) (Homo sapiens, UniProt P08637); experiment: FcγR affinity by biolayer interferometry (Octet Red96e); type: binding
T1 construct: purchased Acro Biosystems
Protocol: (§1) VHH-Fcs were also tested for affinity to FcγRs by biolayer interferometry using the Octet Red96e platform. Each cycle is performed with orbital shake speed of 1,000 rpm. Streptavidin (SA) biosensors (Sartorius 18-5019) were rehydrated for 10 mins using kinetics buffer (PBS+0.1% BSA+0.02% Tween-20). Biotinylated-FcγRs (Acro Biosystems) were then loaded for 40-100 s onto SA biosensors at concentrations ranging between 1-5 μg/mL diluted in PBS. VHH-Fcs were serially diluted 1:2 in sample buffer (PBS+0.02% Tween-20) with starting concentrations ranging between 5000 nM to 37.5 nM. Loaded biosensors were then associated with VHH-Fcs for 60-120 s. VHH-Fc dissociation was measured for 30-900 s in sample buffer. Bound VHH-Fcs were then removed using 3 cycles of 5 s regeneration buffer (150 mM NaCl, 300 mM Sodium Citrate) and 5 s sample buffer. The data was analyzed either using a globally-fitted 1:1 Langmuir binding model (FcγRI) or steady state analysis (Octet software version HT v11.1).

[2] = biological target: T2, FcγRIIIa (V176) (Homo sapiens, UniProt P08637, F176V); experiment: as above; type: binding
T2 construct: purchased Acro Biosystems
Protocol: as §1

[3] = biological target: T3, FcγRI (Homo sapiens, UniProt P12314); experiment: as above; type: binding
T3 construct: purchased Acro Biosystems
Protocol: as §1

[4] = biological target: T4, FcγRIIa (H167) (Homo sapiens, UniProt P12318); experiment: as above; type: binding
T4 construct: purchased Acro Biosystems
T4 sequence (P12318 36-218 limits assumed): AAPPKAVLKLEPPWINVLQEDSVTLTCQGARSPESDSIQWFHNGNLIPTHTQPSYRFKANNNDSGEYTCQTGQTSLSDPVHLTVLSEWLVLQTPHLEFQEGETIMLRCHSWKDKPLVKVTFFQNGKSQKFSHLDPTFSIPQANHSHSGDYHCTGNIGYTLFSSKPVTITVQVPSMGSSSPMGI
Protocol: as §1

[5] = biological target: T5, FcγRIIa (R167) (Homo sapiens, UniProt P12318, H167R); experiment: as above; type: binding
T5 construct: purchased Acro Biosystems
T5 sequence (P12318 36-218 H167R limits assumed): T4 sequence (P12318 36-218 limits assumed) with H132R
Protocol: as §1

[6] = Pharmacokinetics of VHH-Fc variants in Tg32 (humanized FcRn) mice; type: in vivo; conditions: IV 3 mg/kg, HER2 VHH-Fc study (Table 6)
Protocol: Twenty eight (28) 8 week old male B6. Cg-Fcgrt^tm1Der Tg(FCGRT)32Dcr/DcrJ (Tg32 hom, JAX stock #014565) mice were distributed into 7 groups with 4 mice per group as outlined in the table. […] (See, e.g., Avery L B et al. “Utility of a human FcRn transgenic mouse model in drug discovery for early assessment and prediction of human pharmacokinetics of monoclonal antibodies.” MAbs. 2016 August-September; 8(6):1064-78). On Day 0, body weights were measured and test articles were IV administered to all mice at 3 mg/kg and 5 mL/kg. 25 μL blood samples were collected from each mouse at time intervals. The blood samples were collected into 1 μL K3EDTA, processed to plasma, diluted 1/10 in 50% glycerol in PBS, transferred into specialized 96 well storage plates, and stored at −20° C. All plasma samples were assessed via a hIgG ELISA chosen for its high sensitivity for all seven test articles.

[7] = tested on: BT474; experiment: ABC (Antibody Binding Capacity) assay, receptor density; type: cell-based
Protocol: (§2) In order to test efficacy of the immunoconjugate binding with respect to target density receptor density was measured on target positive cell lines. Target density was measured using the ABC (Antibody Binding Capacity) assay. Cancer cells expressing the target of interest, as well as a negative control cell line, were harvested with cell dissociation buffer, seeded at about 5×10^4 cells per well into 96-well V bottom plate (Sarstedt 82.1583.001). Cells were tested for receptor expression using QuantiBRITE PE beads (BD Cat #340495) and a PE-conjugated anti-hu IgG (Biolegend clone HP6017) following the manufacturers' instructions. In brief, VHH-Fc and isotype control antibodies were prepared at suitable saturating concentrations based on previous experiments. Antibody sample dilutions were incubated with the panel of cell lines on ice for 1 hour. Cells were washed twice with 1% FBS in 1×PBS (FACS buffer), centrifuged at 400 G for 4 min. Cells were then incubated with 4 μg/mL mouse PE-conjugated anti-hu and DAPI (1:1000) for 30 minutes on ice. Cells were washed twice with FACS buffer, centrifuged at 400 G for 4 minutes and resuspended in FACS buffer. Fluorescence intensity on the PE channel was measured on the iQue Screener platform, and data were processed with ForeCyt software. The amount of PE signal generated from the different primary antibody was then fit to a standard curve based off of known PE molecules/Quantibrite bead samples to determine the number of antibody-binding sites per cell. Relative antibody binding sites correlate to the number of antigens or receptors on cell surface.

[8] = tested on: HEK293-6E; experiment: as above; type: cell-based
Protocol: as §2

[9] = tested on: SHP-77; experiment: as above; type: cell-based
Protocol: as §2

[10] = tested on: HCT-116; experiment: as above; type: cell-based
Protocol: as §2

[11] = tested on: HEK-DLL3; experiment: as above; type: cell-based
Protocol: as §2

[12] = Thermal stability by differential scanning fluorimetry (DSF); type: physicochemical
Protocol: Denaturing temperatures (Tm) of VHH-Fes were determined from differential scanning fluorimetry (DSF) using Protein Thermo Shift Dye Kit™ (ThermoFisher, Cat #: 4461146). Briefly, A total of 1 μg of antibody was used in each reaction. Melting curves of the antibodies were generated using an Applied Biosystems QuantStudio 7 Flex Real-Time PCR System with the recommended settings stated in the kit manual. The Tm's of the antibodies in Table 1 were then determined by using the ThermoFisher Protein Thermal Shift software (v.1.3). Tm1 of the VHH-Fcs was determined by DSF.

T2 sequence (P08637 17-208 F176V limits assumed): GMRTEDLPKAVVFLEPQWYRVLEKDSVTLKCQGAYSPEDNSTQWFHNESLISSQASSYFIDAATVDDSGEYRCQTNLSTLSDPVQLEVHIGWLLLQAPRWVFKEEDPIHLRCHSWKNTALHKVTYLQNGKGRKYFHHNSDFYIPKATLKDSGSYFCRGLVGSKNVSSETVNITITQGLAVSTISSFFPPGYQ
T1 sequence (P08637 17-208 limits assumed): as the sequence (P08637 17-208 F176V limits assumed) above, with V160F counted along it
T3 sequence (P12314 16-374): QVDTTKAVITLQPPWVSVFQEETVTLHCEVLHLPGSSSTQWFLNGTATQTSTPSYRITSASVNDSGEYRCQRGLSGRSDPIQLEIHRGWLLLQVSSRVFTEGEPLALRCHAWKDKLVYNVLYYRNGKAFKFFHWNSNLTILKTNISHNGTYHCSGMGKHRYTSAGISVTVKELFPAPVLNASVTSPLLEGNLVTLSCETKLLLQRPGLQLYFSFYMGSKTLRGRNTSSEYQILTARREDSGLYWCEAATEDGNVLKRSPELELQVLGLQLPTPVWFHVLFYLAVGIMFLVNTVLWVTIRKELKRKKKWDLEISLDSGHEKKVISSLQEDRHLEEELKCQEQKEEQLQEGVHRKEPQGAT

Substance: H101: anti-HER2 VHH-Fc (2RS15d VHH, human IgG1 Fc); FcRn wt, Fc effector wt [Compound H101]
- Kd [1]: 1600 nM
- Kd [2]: 480 nM
- Kd [3]: 1.01 nM
- Kd [4]: 340 nM
- Kd [5]: 160 nM
- Clearance [6]: 28.7 mL/day
- Cmax [6]: 57.0 µg/mL
- Terminal Half-Life [6]: 6.91 days
- Estimated number of epitopes/cell [7]: 401604 epitopes/cell
- Estimated number of epitopes/cell [8]: 1935 epitopes/cell
- Estimated number of epitopes/cell [9]: 572 epitopes/cell
- Estimated number of epitopes/cell [10]: 2604 epitopes/cell
- Estimated number of epitopes/cell [11]: 1490 epitopes/cell
- Tm1 (thermostability) by DSF [12]: 67.5±0.1 Celsius
